Reference: doi:10.1101/2024.05.27.596091
Like-named read-outs stand apart in the source and are kept apart here.

Columns and labels:
[1] = molecular target: αβ-tubulin (bovine) (UniProt Q6B856); assay: co-sedimentation
[2] = molecular target: αβ-tubulin (bovine) (UniProt Q6B856); assay: co-sedimentation; remark: listed apart in the source

Q: Which results are given for “αβ-tubulin (from UniProt Q6B856 1-445) (complex)”?
A: critical concentration for spontaneous nucleation [1]: 3.9 µM; critical concentration for spontaneous nucleation [2]: 20.7 µM
